Source: IntAct's records for PubMed 20485341

B1: Interleukin-1 receptor-associated kinase 4 (Homo sapiens), Q9NWZ3 (parent)
chain: MNKPITPSTYVRCLNVGLIRKLSDFIDPQEGWKKLAVAIKKPSGDDRYNQFHIRRFEALLQTGKSPTSELLFDWGTTNCTVGDLVDLLIQNEFFAPASLLLPDAVPKTANTLPSKEAITVQQKQMPFCDKDRTLMTPVQNLEQSYMPPDSSSPENKSLEVSDTRFHSFSFYELKNVTNNFDERPISVGGNKMGEGGFGVVYKGYVNNTTVAVKKLAAMVDITTEELKQQFDQEIKVMAKCQHENLVELLGFSSDGDDLCLVYVYMPNGSLLDRLSCLDGTPPLSWHMRCKIAQGAANGINFLHENHHIHRDIKSANILLDEAFTAKISDFGLARASEKFAQTVMTSRIVGTTAYMAPEALRGEITPKSDIYSFGVVLLEIITGLPAVDEHREPQLLLDIKEEIEDEEKTIEDYIDKKMNDADSTSVEAMYSVASQCLHEKKNKRPDIKKVQQLLQEMTAS

Variants of: B1
Conditions: with MYD88, Q99836-1
Sequence of MYD88, Q99836-1 (Q99836 whole entry): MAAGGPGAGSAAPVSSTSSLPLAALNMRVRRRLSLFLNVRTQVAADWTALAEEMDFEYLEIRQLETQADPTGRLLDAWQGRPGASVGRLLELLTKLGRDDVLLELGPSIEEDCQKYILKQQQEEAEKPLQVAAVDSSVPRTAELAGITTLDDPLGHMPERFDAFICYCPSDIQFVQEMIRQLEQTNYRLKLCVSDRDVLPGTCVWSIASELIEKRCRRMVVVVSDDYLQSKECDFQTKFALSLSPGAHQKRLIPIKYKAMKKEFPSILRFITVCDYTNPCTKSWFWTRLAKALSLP

Effect of a mutation on the interaction, disrupting interaction:
E69K
T76E
N78E
